Data published in patent US6890726, “Method for selecting recombinase variants with altered specificity” (Oklahoma Medical Research Foundation).

What was measured:
Settings in all cases: chain copies: 4
Cre R3M1 (mxoxox 1) = target: T1, Cre R3M1 (mxoxox 1) (UniProt P06956 SEQ:1-343); test: cell_activity; E. coli
T1 chain: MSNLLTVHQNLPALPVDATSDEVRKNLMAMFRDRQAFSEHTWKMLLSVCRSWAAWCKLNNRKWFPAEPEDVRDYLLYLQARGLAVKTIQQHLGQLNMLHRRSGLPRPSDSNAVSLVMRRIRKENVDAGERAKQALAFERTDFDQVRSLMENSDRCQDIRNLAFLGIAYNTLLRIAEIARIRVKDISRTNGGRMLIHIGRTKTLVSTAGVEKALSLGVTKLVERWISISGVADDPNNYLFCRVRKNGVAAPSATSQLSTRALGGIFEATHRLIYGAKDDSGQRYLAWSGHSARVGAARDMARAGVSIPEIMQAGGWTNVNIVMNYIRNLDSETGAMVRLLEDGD

Cre R3M3 (mxoxox 3) = target: T2, Cre R3M3 (mxoxox 3) (UniProt P06956 SEQ:1-343); test: cell_activity; E. coli
T2 chain: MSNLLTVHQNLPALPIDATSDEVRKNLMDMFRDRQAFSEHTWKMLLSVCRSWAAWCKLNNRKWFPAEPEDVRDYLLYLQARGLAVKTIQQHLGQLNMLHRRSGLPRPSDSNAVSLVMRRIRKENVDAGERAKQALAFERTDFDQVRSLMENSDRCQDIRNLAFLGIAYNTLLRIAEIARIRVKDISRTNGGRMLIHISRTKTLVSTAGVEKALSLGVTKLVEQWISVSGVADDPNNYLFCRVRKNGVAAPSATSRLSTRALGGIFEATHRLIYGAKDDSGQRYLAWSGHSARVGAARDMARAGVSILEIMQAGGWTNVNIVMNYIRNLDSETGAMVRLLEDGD

Cre R3M2 (mxoxox 2) = target: T3, Cre R3M2 (mxoxox 2) (UniProt P06956 SEQ:1-343); test: cell_activity; E. coli
T3 chain: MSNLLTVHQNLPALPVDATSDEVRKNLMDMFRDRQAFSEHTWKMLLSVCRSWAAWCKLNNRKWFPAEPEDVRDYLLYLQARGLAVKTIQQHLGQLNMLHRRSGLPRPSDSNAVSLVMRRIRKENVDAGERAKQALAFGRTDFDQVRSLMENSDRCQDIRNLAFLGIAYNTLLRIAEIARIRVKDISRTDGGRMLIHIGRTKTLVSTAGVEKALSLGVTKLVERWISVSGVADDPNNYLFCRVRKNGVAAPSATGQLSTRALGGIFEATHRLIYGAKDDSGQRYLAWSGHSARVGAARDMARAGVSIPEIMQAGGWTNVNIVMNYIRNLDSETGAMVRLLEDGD

Cre E262W = Cre E262W (UniProt P06956 P06956:1-343, E262W); test: cell_activity; similar to E262G
Text: (§1) The three defined Cre mutants for the amino acid position 262 were subjected to a functional test for loxK2, loxK1 and loxP recombination activity, as mentioned before. […] To conclude, this final experiment provides the necessary evidence that the E262G mutation presents the basis for the observed decrease in specificity of Cre. However, additional mutations seem to be helpful to increase the newly obtained activity further. In addition, glycine at position 262 is not the only possible residue to permit a remarkable increase in loxK2 activity.
(§2) The results of functional testing of three defined Cre mutants for position 262 compared to wt Cre are listed. All enzymes were checked on loxK2, loxP and loxK1 recombination in the selection strains BS1494, BS1493 and the control strain BS1541. In the first column the Cre candidate is indicated, in the second the allowed time for cre expression. The three following columns show the calculated percentages of Kan^R when subjecting the different Cre mutants and wt Cre to the three selection strains. The frequency of the observed Kan^R phenotype is considered as an indicator for the frequency of […] recombination: On loxK2, E262G and E262W show approximately an 10^3 fold increased Kan^R frequency compared to wt Cre, whereas E262A results in a 200 fold increase. […]

Cre E262A = Cre E262A (UniProt P06956 P06956:1-343, E262A); test: cell_activity; E. coli
Text: as §1, §2

B1: loxK2 (selection plasmid pBS584) (dsDNA)
DNA 1: GATACAACGTATATACCTTTCTATACGTTGTATT
DNA 2: AATACAACGTATAGAAAGGTATATACGTTGTATC
**Q.** With B1 as the binder, how does the activity (Cre R3M1 (mxoxox 1)) read?
**A.** The activity was ~50 % recombination.

**Q.** What about the activity (Cre R3M3 (mxoxox 3)) of the same binder?
**A.** Its activity is ~50 % recombination.

**Q.** What about the activity (Cre R3M2 (mxoxox 2)) of the same binder?
**A.** Its activity is ~50 % recombination.

**Q.** What about the activity (Cre E262W) of the same binder?
**A.** The activity was ~1000 fold vs wt.

**Q.** And the activity (Cre E262A)?
**A.** Its activity is 200 fold vs wt.
